Target: T1, PACAP-R3 (human, UniProt P41587 24-438)
T1 sequence (looked up): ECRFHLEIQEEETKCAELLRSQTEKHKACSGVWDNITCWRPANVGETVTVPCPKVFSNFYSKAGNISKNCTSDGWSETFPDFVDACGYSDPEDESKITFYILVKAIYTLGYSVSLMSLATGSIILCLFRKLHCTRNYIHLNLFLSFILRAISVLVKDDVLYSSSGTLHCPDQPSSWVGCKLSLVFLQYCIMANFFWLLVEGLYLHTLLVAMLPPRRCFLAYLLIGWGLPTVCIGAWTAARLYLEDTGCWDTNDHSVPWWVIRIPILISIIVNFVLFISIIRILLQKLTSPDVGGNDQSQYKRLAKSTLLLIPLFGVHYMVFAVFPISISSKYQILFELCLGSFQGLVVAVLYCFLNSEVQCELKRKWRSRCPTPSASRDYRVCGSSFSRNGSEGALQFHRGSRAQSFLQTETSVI
Experiment: cell-based or functional assay

HSDAVFTDNYTRLRKQMAGKKYLNSIPNRI [rR3P180]
R3 EC50, nM (cAMP SPA): 6.7 nM
R3 Selectivity: > 20 ratio

HSDAVFTDNYTRLRKQMAKKKYLNSIPNRI [rR3P181]
R3 EC50, nM (cAMP SPA): 5.1 nM
R3 Selectivity: 50 ratio

HSDAVFTDNYTRLRKQMARKKYLNSIPNRI [rR3P182]
R3 EC50, nM (cAMP SPA): 3.2 nM
R3 Selectivity: 90 ratio

HSDAVFTDNYTRLRKQMASKKYLNSIPNRI [rR3P183]
R3 EC50, nM (cAMP SPA): 5.4 nM
R3 Selectivity: > 30 ratio

HSDAVFTDNYTRLRKQMAAKKYLNSIQNRI [rR3P184]
R3 EC50, nM (cAMP SPA): 0.37 nM
R3 Selectivity: 30 ratio

HSDAVFTDNYTRLRKQMAGKKYLNSIQNRI [rR3P185]
R3 EC50, nM (cAMP SPA): 4.5 nM
R3 Selectivity: 40 ratio

HSDAVFTDNYTRLRKQMAKKKYLNSIQNRI [rR3P186]
R3 EC50, nM (cAMP SPA): 1.6 nM
R3 Selectivity: 44 ratio

HSDAVFTDNYTRLRKQMARKKYLNSIQNRI [rR3P187]
R3 EC50, nM (cAMP SPA): 1.6 nM
R3 Selectivity: > 80 ratio

HSDAVFTDNYTRLRKQMASKKYLNSIQNRI [rR3P188]
R3 EC50, nM (cAMP SPA): 2.2 nM
R3 Selectivity: 70 ratio

HSDAVFTDNYTRLRKQMAAKKYLNSIRNRI [rR3P189]
R3 EC50, nM (cAMP SPA): 0.04 nM
R3 Selectivity: 30 ratio

HSDAVFTDNYTRLRKQMAGKKYLNSIRNRI [rR3P190]
R3 EC50, nM (cAMP SPA): 2.2 nM
R3 Selectivity: 100 ratio

HSDAVFTDNYTRLRKQMAKKKYLNSIRNRI [rR3P191]
R3 EC50, nM (cAMP SPA): 2.7 nM
R3 Selectivity: > 80 ratio

HSDAVFTDNYTRLRKQMARKKYLNSIRNRI [rR3P192]
R3 EC50, nM (cAMP SPA): 0.6 nM
R3 Selectivity: 60 ratio

HSDAVFTDNYTRLRKQMASKKYLNSIRNRI [rR3P193]
R3 EC50, nM (cAMP SPA): 1.9 nM
R3 Selectivity: 110 ratio

Reference: US6972319B1, “Pituitary adenylate cyclase activating peptide (PACAP)receptor 3 (R3) agonists and their pharmacological methods of use” (priority 1999, dated 2005)
